# In patent US20200283478A1 (Genentech, published 2020):
# Bridge positions count the residues as written; N and C are the ends. Square brackets hold non-standard residues; d marks the D form. Primed or numbered codes have the meaning given here. hArg = N=C(N)NCCCC[C@H](N)C(=O)O; Hyp′ = 3-hydroxyproline; Ahp = NCCCCCCC(=O)O; Ahx = NCCCCCC(=O)O
# B1: Compound 109 (Ac-CrLPWNLQRIGLPC-NH2) (peptide)
# peptide: Ac-C[dR]LPWNLQRIGLPC-NH2
# modifications: disulfide 1-14
# SMILES: CC[C@H](C)[C@@H]1NC(=O)[C@H](CCCNC(=N)N)NC(=O)[C@H](CCC(N)=O)NC(=O)[C@H](CC(C)C)NC(=O)[C@H](CC(N)=O)NC(=O)[C@H](Cc2c[nH]c3ccccc23)NC(=O)[C@@H]2CCCN2C(=O)[C@H](CC(C)C)NC(=O)[C@@H](CCCNC(=N)N)NC(=O)[C@@H](NC(C)=O)CSSC[C@@H](C(N)=O)NC(=O)[C@@H]2CCCN2C(=O)[C@H](CC(C)C)NC(=O)CNC1=O
# B2: Compound 110 (Ac-cRLPWNLQRIGLPC-NH2) (peptide)
# peptide: Ac-[dC]RLPWNLQRIGLPC-NH2
# modifications: disulfide 1-14
# SMILES: CC[C@H](C)[C@@H]1NC(=O)[C@H](CCCNC(=N)N)NC(=O)[C@H](CCC(N)=O)NC(=O)[C@H](CC(C)C)NC(=O)[C@H](CC(N)=O)NC(=O)[C@H](Cc2c[nH]c3ccccc23)NC(=O)[C@@H]2CCCN2C(=O)[C@H](CC(C)C)NC(=O)[C@H](CCCNC(=N)N)NC(=O)[C@H](NC(C)=O)CSSC[C@@H](C(N)=O)NC(=O)[C@@H]2CCCN2C(=O)[C@H](CC(C)C)NC(=O)CNC1=O
# B3: Compound 117 (Ac-CRLPWNLQ(homoR)IGLPC-NH2) (peptide)
# peptide: Ac-CRLPWNLQ[hArg]IGLPC-NH2
# modifications: disulfide 1-14
# SMILES: CC[C@H](C)[C@@H]1NC(=O)[C@H](CCCCNC(=N)N)NC(=O)[C@H](CCC(N)=O)NC(=O)[C@H](CC(C)C)NC(=O)[C@H](CC(N)=O)NC(=O)[C@H](Cc2c[nH]c3ccccc23)NC(=O)[C@@H]2CCCN2C(=O)[C@H](CC(C)C)NC(=O)[C@H](CCCNC(=N)N)NC(=O)[C@@H](NC(C)=O)CSSC[C@@H](C(N)=O)NC(=O)[C@@H]2CCCN2C(=O)[C@H](CC(C)C)NC(=O)CNC1=O
# B4: Compound 116 (Ac-CRLPWNLQRI-(Ahx)-C-NH2) (peptide)
# peptide: Ac-CRLPWNLQRI[Ahx]C-NH2
# modifications: disulfide 1-12
# SMILES: CC[C@H](C)[C@@H]1NC(=O)[C@H](CCCNC(=N)N)NC(=O)[C@H](CCC(N)=O)NC(=O)[C@H](CC(C)C)NC(=O)[C@H](CC(N)=O)NC(=O)[C@H](Cc2c[nH]c3ccccc23)NC(=O)[C@@H]2CCCN2C(=O)[C@H](CC(C)C)NC(=O)[C@H](CCCNC(=N)N)NC(=O)[C@@H](NC(C)=O)CSSC[C@@H](C(N)=O)NC(=O)CCCCCNC1=O
# B5: Compound 121 (Ac-CRLPWNLQRI-(Ahp)-C-NH2) (peptide)
# peptide: Ac-CRLPWNLQRI[Ahp]C-NH2
# modifications: disulfide 1-12
# SMILES: CC[C@H](C)[C@@H]1NC(=O)[C@H](CCCNC(=N)N)NC(=O)[C@H](CCC(N)=O)NC(=O)[C@H](CC(C)C)NC(=O)[C@H](CC(N)=O)NC(=O)[C@H](Cc2c[nH]c3ccccc23)NC(=O)[C@@H]2CCCN2C(=O)[C@H](CC(C)C)NC(=O)[C@H](CCCNC(=N)N)NC(=O)[C@@H](NC(C)=O)CSSC[C@@H](C(N)=O)NC(=O)CCCCCCNC1=O
# B6: Compound 63 (Ac-MCLWNLKRIGSQCEY-NH2) (peptide)
# peptide: Ac-MCLWNLKRIGSQCEY-NH2
# modifications: disulfide 2-13
# SMILES: CC[C@H](C)[C@@H]1NC(=O)[C@H](CCCNC(=N)N)NC(=O)[C@H](CCCCN)NC(=O)[C@H](CC(C)C)NC(=O)[C@H](CC(N)=O)NC(=O)[C@H](Cc2c[nH]c3ccccc23)NC(=O)[C@H](CC(C)C)NC(=O)[C@@H](NC(=O)[C@H](CCSC)NC(C)=O)CSSC[C@@H](C(=O)N[C@@H](CCC(=O)O)C(=O)N[C@@H](Cc2ccc(O)cc2)C(N)=O)NC(=O)[C@H](CCC(N)=O)NC(=O)[C@H](CO)NC(=O)CNC1=O
# Target: T1, His-tagged PCSK9Δhelix (human, UniProt Q8NBP7 31-152; Q8NBP7 168-692)
# T1 construct: Human PCSK9 M1-Q692 with an engineered TEV site, cut by TEV protease; new N-terminus of the catalytic domain is S-A168; also called His-PCSK9Δhelix; not shown: His tag
# Assay: TR-FRET competition (PCSK9Δhelix/Ab20 assay); competitor Ab20
# Method: Signal generation in the PCSK9 binding assays was dependent upon the binding interaction to bring into close proximity the His-tag on the PCSK9 and the Fc-tag on the ligand. Anti-His-APC was bound to the His-tag, and anti-Fc-europium was bound to the Fc-tag.
# Compounds were solubilized and dilutions were prepared in DMSO. […] The plate was centrifuged to mix the well contents and allowed to incubate for 30 min. […] The normalized TR-FRET ratios were plotted as a function of the compound concentrations, and the IC₅₀ values were determined using a 4-parameter logistic regression.
# T1 sequence (Q8NBP7 31-152, stated change not applied, chain 1 of 2): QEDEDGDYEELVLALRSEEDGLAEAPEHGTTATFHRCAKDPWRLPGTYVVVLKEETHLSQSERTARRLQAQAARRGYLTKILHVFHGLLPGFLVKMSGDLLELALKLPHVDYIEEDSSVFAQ
# T1 sequence (Q8NBP7 other isoform, or with tags, fused parts or gaps mutant, chain 2 of 2): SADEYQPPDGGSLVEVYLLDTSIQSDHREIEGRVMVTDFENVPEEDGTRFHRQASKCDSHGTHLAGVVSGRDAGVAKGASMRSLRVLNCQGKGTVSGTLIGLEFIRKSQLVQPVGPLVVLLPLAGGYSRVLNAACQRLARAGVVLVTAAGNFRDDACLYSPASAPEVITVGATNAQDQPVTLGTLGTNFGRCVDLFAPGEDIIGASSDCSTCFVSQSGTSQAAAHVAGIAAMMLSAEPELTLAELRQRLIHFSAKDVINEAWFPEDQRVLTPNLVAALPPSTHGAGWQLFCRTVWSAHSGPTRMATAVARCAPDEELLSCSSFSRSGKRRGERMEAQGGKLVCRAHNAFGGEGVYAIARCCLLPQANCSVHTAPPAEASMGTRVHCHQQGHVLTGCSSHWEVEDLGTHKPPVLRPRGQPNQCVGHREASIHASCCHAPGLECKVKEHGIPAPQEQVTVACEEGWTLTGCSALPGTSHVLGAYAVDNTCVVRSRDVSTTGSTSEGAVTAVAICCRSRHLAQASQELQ
row,Binder,IC50
1,B1,1.67 µM
2,B2,1.78 µM
3,B3,0.334 µM
4,B4,31.6 µM
5,B5,40.3 µM
6,Ac-SGCRL[Hyp′]WNLQRIGLPC-NH2 (disulfide 3-16) [Compound 37 (Ac-SG-CRL(Hyp)WNLQRIGLPC-NH2)],11.1 µM
7,B6,6 µM

# Target: T2, His-tagged, full-length PCSK9 (human, UniProt Q8NBP7 31-692)
# T2 construct: secreted PCSK9 is autocatalytically cleaved into prodomain and catalytic domain + CRD (from S153), which stay associated; also called His-PCSK9; proprotein convertase subtilisin/kexin type 9; not shown: His tag
# Assay: TR-FRET competition (PCSK9/EGF(A) assay); competitor EGF(A)-Fc;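 further: proximity signal from anti-His APC on PCSK9 paired with anti-Fc europium on the Fc ligand, read as normalized TR-FRET ratio across compound dilutions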
# T2 sequence (Q8NBP7 31-692 limits assumed): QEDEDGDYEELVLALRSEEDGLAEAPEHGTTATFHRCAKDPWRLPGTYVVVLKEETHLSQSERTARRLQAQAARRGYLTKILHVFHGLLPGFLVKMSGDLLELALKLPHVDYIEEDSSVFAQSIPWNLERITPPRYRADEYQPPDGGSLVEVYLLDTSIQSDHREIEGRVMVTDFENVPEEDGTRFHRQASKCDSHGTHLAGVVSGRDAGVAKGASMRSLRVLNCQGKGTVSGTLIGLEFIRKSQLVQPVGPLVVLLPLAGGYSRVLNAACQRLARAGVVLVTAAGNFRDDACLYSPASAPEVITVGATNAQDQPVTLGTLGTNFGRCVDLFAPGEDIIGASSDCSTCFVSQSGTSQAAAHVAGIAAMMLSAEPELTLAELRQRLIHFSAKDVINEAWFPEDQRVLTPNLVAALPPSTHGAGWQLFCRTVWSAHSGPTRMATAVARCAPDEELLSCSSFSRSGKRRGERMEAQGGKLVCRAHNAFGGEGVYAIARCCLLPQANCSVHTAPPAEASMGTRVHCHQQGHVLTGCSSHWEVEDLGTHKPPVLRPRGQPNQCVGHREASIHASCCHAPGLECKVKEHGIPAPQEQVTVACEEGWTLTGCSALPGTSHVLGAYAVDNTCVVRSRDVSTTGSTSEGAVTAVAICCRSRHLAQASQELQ
row,Binder,IC50
1,B1,> 50 µM
2,B2,> 50 µM
3,B3,> 50 µM
4,B4,> 50 µM
5,B5,> 50 µM
6,Ac-SGCRL[Hyp′]WNLQRIGLPC-NH2 (disulfide 3-16) [Compound 37 (Ac-SG-CRL(Hyp)WNLQRIGLPC-NH2)],> 50 µM
7,B6,14.6 µM
